From US20040224408A1, “THAP proteins as nuclear receptors for chemokines and roles in transcriptional regulation, cell proliferation and cell differentiation” (published 2004) come the findings set out here.

Experiment [1] deals with T1, Par4 leucine zipper/death domain (Par4DD, amino acids 250-342) (human, UniProt Q96IZ0 248-340).
T1 construct: also called myc-Par4DD; mycPar4DD
T1 chain: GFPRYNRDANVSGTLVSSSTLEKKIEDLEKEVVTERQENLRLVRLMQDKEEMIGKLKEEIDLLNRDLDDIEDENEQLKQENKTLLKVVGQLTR
As to the kind of experiment: yeast two-hybrid. How it is done:
Two-hybrid interaction between THAP1 mutants and Par4DD was tested by cotransformation of AH109 with pGBKT7-THAP1-C1, -C2, -C3, -N1, -N2 or -N3 and pGADT7-Par4DD and selection of transformants by His and Ade double auxotrophy according to manufacturer's instructions ([…] two-hybrid system 3, Clontech).
for mutant THAP1ΔQRCRR. The resulting PCR fragments were digested with EcoRI and BamHI, and cloned in frame downstream of the Gal4 Binding Domain (Gal4-BD) in pGBKT7 two-hybrid vector (Clontech) to generate pGBKT7-THAP1-RR/AA and −Δ(QRCRR), or downstream of the Enhanced Green Fluorescent Protein (EGFP) ORF in pEGFP.C2 vector (Clontech) to generate pEGFP.C2-THAP1-RR/AA and −Δ(QRCRR). THAP1 RR/AA and THAP1ΔQRCRR THAP1 mutants were then tested in the three THAP1/Par4 interaction assays (two-hybrid assay, in vitro THAP1/Par4 interaction assay, in vivo THAP1/Par4 interaction assay) as described above for the THAP1-C1, -C2, -C3, -N1, -N2 or -N3 mutants.

The target in experiment [2] is T2, GST-Par4DD fusion protein (pGEX-2T-Par4DD, Par4 amino acids 250-342) (human, UniProt Q96IZ0 248-340).
T2 construct: Expressed in E. coli DH5alpha and immobilized on glutathione sepharose; not shown: Glutathione S-transferase (GST) encoded by the pGEX-2T prokaryotic expression vector (Amersham Pharmacia Biotech); N-ter
T2 chain: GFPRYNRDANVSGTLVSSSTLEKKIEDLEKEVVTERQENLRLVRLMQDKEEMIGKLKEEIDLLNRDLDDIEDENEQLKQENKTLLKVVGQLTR
As to the kind of experiment: in vitro THAP1/Par4 interaction assay (GST pull-down with GST-Par4DD). The procedure:
THAP1 mutants were also tested in the in vitro THAP1/Par4 interaction assay. In vitro-translated THAP1 mutants were generated with the TNT-coupled reticulocyte lysate system (Promega, Madison, Wis., USA) using pGBKT7-THAP1-C1, -C2, -C3, -N1, -N2 or -N3 vector as template. 25 μl of each ³⁵S-labelled THAP1 mutant was incubated with immobilized GST or GST-Par4 protein overnight at 4° C., in the following binding buffer: 10 mM NaPO4 pH 8.0, 140 mM NaCl, 3 mM MgCl2, 1 mM dithiothreitol (DTT), 0.05% NP40, and 0.2 mM phenylmethyl sulphonyl fluoride (PMSF), 1 mM Na Vanadate, 50 mM β Glycerophosphate, 25 μg/ml chimotrypsine, 5 μg/ml aprotinin, 10 μg/ml Leupeptin. Beads were then washed 5 times in 1 ml binding buffer. Bound proteins were eluted with 2×Laemmli SDS-PAGE sample buffer, fractionated by 10% SDS-PAGE and visualized by fluorography using Amplify (Amersham Pharmacia Biotech). As expected, THAP1-C1, -C2, -C3, -and -N3 interacted with GST/Par4DD (FIG. 4B).
for mutant THAP1ΔQRCRR. The resulting PCR fragments were digested with EcoRI and BamHI, and cloned in frame downstream of the Gal4 Binding Domain (Gal4-BD) in pGBKT7 two-hybrid vector (Clontech) to generate pGBKT7-THAP1-RR/AA and −Δ(QRCRR), or downstream of the Enhanced Green Fluorescent Protein (EGFP) ORF in pEGFP.C2 vector (Clontech) to generate pEGFP.C2-THAP1-RR/AA and −Δ(QRCRR). […]

In experiment [3] the target is T3, human THAP2 (human, UniProt Q9H0W7 1-228, limits assumed).
T3 construct: also called hTHAP2
As to the kind of experiment: yeast two-hybrid using Par-4 wild type bait (FIG. 10B).

Experiment [4] has as its target T4, human THAP3 (human, UniProt Q8WTV1 1-239, limits assumed).
T4 construct: also called hTHAP3
T4 sequence: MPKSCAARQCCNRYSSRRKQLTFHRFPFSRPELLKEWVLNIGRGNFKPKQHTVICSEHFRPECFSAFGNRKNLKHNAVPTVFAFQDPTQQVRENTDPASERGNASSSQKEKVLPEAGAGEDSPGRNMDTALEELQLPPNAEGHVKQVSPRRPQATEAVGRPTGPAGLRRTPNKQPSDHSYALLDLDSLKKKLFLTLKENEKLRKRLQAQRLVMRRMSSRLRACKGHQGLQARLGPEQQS
The experiment is described as above.

For experiment [5], the target named is T5, human THAP1 (THanatos (death)-Associated Protein-1), full length (human, UniProt Q9NVV9 1-213).
T5 construct: also called hTHAP1; FLJ10477
T5 sequence: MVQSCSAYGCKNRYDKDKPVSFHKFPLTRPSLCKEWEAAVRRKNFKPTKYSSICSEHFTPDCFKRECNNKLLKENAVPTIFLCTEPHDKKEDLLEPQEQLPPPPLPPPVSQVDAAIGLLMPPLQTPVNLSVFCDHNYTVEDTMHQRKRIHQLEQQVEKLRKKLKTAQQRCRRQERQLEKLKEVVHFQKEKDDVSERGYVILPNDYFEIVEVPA
The experiment can be described thus: yeast two-hybrid, both orientations (His/Ade selection). From the text: We then examined whether the leucine zipper/death domain at the C-terminus of Par4, previously shown to be involved in Par4 binding to WT-1 and aPKC, was required for the interaction between THAP1 and Par4. Two Par4 mutants were constructed for that purpose, Par4A and Par4DD. Par4A lacks the leucine zipper/death domain while Par4DD contains this domain. pGBKT7-Par4A(amino acids 1-276) and pGADT7-Par4A. were constructed by sub-cloning a EcoRI-BglII fragment from pGADT7-Par4 into the EcoRI and BamHI sites of pGBKT7 and pGADT7. Par4DD (amino acids 250-342) was amplified by PCR, using pGBKT7-Par4 as template, with primers Par4.4 (5′-[…]-3′) (SEQ ID NO: 193) and Par4.5, and cloned into the EcoRI and BamHI sites of pGBKT7 and pGADT7 to obtain pGBKT7-Par4DD and pGADT7-Par4DD. Two-hybrid interaction between THAP1 and Par4 mutants was tested by cotransformation of AH109 with pGBKT7-THAP1 and pGADT7-Par4A or pGADT7-Par4DD and selection of transformants by His and Ade double auxotrophy according to manufacturer's instructions ([…] two-hybrid system 3, Clontech). […] Similar results were obtained when two-hybrid experiments were performed in the opposite orientation using Par4 or Par4 mutants (Par4A and Par4DD) as baits instead of THAP1 (FIG. 3A).

In experiment [6] the target is T5, human THAP1 (THanatos …). As to the kind of experiment: yeast two-hybrid, BD7-THAP1 with AD7-SLC/CCL21ΔCOOH; identical results in the opposite orientation. The text has this: For two-hybrid assays, yeast cells were cotransformed with BD7-THAP1 and AD7-SLC/CCL21 or AD7-SLC/CCL21ΔCOOH expression vectors. AD7-SLC/CCL21 or AD7-SLC/CCL21ΔCOOH expression vectors were generated by subcloning BamHI fragment (encoding SLC amino acids 24-134) or BamHI-PstI fragment (encoding SLC amino acids 24-102) from pGKT7-SLC/CCL21 (see example 15) into pGADT7 expression vector (Clontech). Transformants were selected on media lacking histidine and adenine. […] Identical results were obtained by cotransformation of AD7-THAP1 with BD7-SLC/CCL21 or BD7-SLC/CCL21ΔCOOH.

T3 sequence (Q9H0W7 whole entry): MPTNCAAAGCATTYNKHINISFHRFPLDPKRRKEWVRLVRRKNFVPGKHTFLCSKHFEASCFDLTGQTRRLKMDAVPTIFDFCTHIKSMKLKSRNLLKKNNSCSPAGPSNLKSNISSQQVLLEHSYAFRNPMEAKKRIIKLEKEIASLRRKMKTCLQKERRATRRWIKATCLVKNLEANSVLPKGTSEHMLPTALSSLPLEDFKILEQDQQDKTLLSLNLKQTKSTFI

B1: THAP1 RR/AA mutant (R171A, R172A) (other)
chain: MVQSCSAYGCKNRYDKDKPVSFHKFPLTRPSLCKEWEAAVRRKNFKPTKYSSICSEHFTPDCFKRECNNKLLKENAVPTIFLCTEPHDKKEDLLEPQEQLPPPPLPPPVSQVDAAIGLLMPPLQTPVNLSVFCDHNYTVEDTMHQRKRIHQLEQQVEKLRKKLKTAQQRCAAQERQLEKLKEVVHFQKEKDDVSERGYVILPNDYFEIVEVPA
notes: Tested as a Gal4-BD fusion (pGBKT7), as in vitro translated protein and as an EGFP fusion; also called THAP RR/AA
On to B1, for which the binding result in experiment [1] and in experiment [2] was “no binding” in each case.

B2: human prostate apoptosis response-4 protein (PAR4), full length (other)
chain: MATGGYRTSSGLGGSTTDFLEEWKAKREKMRAKQNPPGPAPPGGGSSDAAGKPPAGALGTPAAAAANELNNNLPGGAPAAPAVPGPGGVNCAVGSAMLTRAPPARGPRRSEDEPPAASASAAPPPQRDEEEPDGVPEKGKSSGPSARKGKGQIEKRKLREKRRSTGVVNIPAAECLDEYEDDEAGQKERKREDAITQQNTIQNEAVNLLDPGSSYLLQEPPRTVSGRYKSTTSVSEEDVSSRYSRTDRSGFPRYNRDANVSGTLVSSSTLEKKIEDLEKEVVTERQENLRLVRLMQDKEEMIGKLKEEIDLLNRDLDDIEDENEQLKQENKTLLKVVGQLTR
notes: Tested as a Gal4-BD (pGBKT7-Par4) or Gal4-AD (pGADT7-Par4) fusion in yeast two-hybrid; also called Par4 wild type
B2: the binding result in experiment [3], in experiment [4] and in experiment [5] was “binds” in each case.

B3: SLC/CCL21ΔCOOH deletion mutant lacking the basic carboxy-terminal extension (ligand)
chain: SDGGAQDCCLKYSQRKIPAKVVRSYRKQEPSLGCSIPAILFLPRKRSQAELCADPKELWVQQLMQHLDKTPSPQKPAQG
notes: Tested as a Gal4-AD or Gal4-BD fusion and as in vitro translated protein; also called SLC/CCL21?COOH
With B3, the binding result in experiment [6] was “binds”.
